Assay results reported in patent publication US20230021388A1 (VELOSBIO, published 2023).
Substitutions are numbered along the chain they refer to. Names and notes keep the numbering of the source.

B1: Ab1 Fab variant H1 T32E (Fab, V domains shown)
VH: QVQLQESGPGLVKPSQTLSLTCTVSGYAFEAYNIHWVRQAPGQGLEWMGSFDPYDGGSSYNQKFKDRLTISKDTSKNQVVLTMTNMDPVDTATYYCARGWYYFDYWGHGTLVTVSS
VL: DIVMTQTPLSLPVTPGEPASISCRASKSISKYLAWYQQKPGQAPRLLIYSGSTLQSGIPPRFSGSGYGTDFTLTINNIESEDAAYYFCQQHDESPYTFGEGTKVEIK
notes: Fab
B2: Ab1 Fab variant H1 T32A + L1 A25P (Fab, V domains shown)
VH: B1 VH with E30A
VL: B1 VL with A25P
notes: Fab
B3: Ab1 Fab variant H1 T32A + L1 K29E + L2 T69R (Fab, V domains shown)
VH: B1 VH with E30A
VL: B1 VL with K27E, T53R
notes: Fab
B4: Ab1 Fab variant H1 T32A + L1 K29E (Fab, V domains shown)
VH: B1 VH with E30A
VL: B1 VL with K27E
notes: Fab
B5: Ab1 Fab variant H1 T32A + L1 K29S + L2 T69R (Fab, V domains shown)
VH: B1 VH with E30A
VL: B1 VL with K27S, T53R
notes: Fab
B6: Ab1 Fab variant H1 T32A + L1 A25P + L2 T69R (Fab, V domains shown)
VH: B1 VH with E30A
VL: B1 VL with A25P, T53R
notes: Fab
B7: Ab1 Fab variant H1 T32A + L1 K29S (Fab, V domains shown)
VH: B1 VH with E30A
VL: B1 VL with K27S
notes: Fab
B8: Ab1 Fab variant H1 T32A + L2 T69R (Fab, V domains shown)
VH: B1 VH with E30A
VL: B1 VL with T53R
notes: Fab
B9: Ab1 Fab variant H3 W110F (Fab, V domains shown)
VH: B1 VH with E30T, W100F
VL: B1 VL
notes: Fab
B10: Ab1 Fab variant H3 W110H (Fab, V domains shown)
VH: B1 VH with E30T, W100H
VL: B1 VL
notes: Fab
B11: Ab1 Fab variant H3 W110Y (Fab, V domains shown)
VH: B1 VH with E30T, W100Y
VL: B1 VL
notes: Fab
B12: Ab1 Fab variant H3 W110M (Fab, V domains shown)
VH: B1 VH with E30T, W100M
VL: B1 VL
notes: Fab
B13: Ab1 Fab variant H1 T32A + L2 T69R, Q71T (Fab, V domains shown)
VH: B1 VH with E30A
VL: B1 VL with T53R, Q55T
notes: Fab
B14: Ab1 Fab variant H1 T32A + L2 T69H (Fab, V domains shown)
VH: B1 VH with E30A
VL: B1 VL with T53H
notes: Fab
B15: Ab1 Fab variant H1 T32A + L2 T69H, L70K, Q71T (Fab, V domains shown)
VH: B1 VH with E30A
VL: B1 VL with T53H, L54K, Q55T
notes: Fab
B16: Ab1 Fab variant H1 T32A + L2 L70K (Fab, V domains shown)
VH: B1 VH with E30A
VL: B1 VL with L54K
notes: Fab
B17: Ab1 Fab variant H1 T32A + L2 L70K, Q71T (Fab, V domains shown)
VH: B1 VH with E30A
VL: B1 VL with L54K, Q55T
notes: Fab
B18: Ab1 Fab variant H1 T32A + L2 T69H, L70K (Fab, V domains shown)
VH: B1 VH with E30A
VL: B1 VL with T53H, L54K
notes: Fab
B19: Ab1 Fab variant H1 T32A + L1 A25P + L2 L70K (Fab, V domains shown)
VH: B1 VH with E30A
VL: B1 VL with A25P, L54K
notes: Fab
B20: Ab1 Fab variant H1 T32A + L1 A25P + L2 T69H (Fab, V domains shown)
VH: B1 VH with E30A
VL: B1 VL with A25P, T53H
notes: Fab
B21: Ab1 Fab variant H1 T32A + L1 A25P + L2 Q71T (Fab, V domains shown)
VH: B1 VH with E30A
VL: B1 VL with A25P, Q55T
notes: Fab

What follows are binders tested against T1, recombinant human ROR1 extracellular domain (human, UniProt Q01973 30-406) (assay: ELISA, soluble Fab on coated huROR1-ECD).
T1 construct: biotinylated for the filter lifts; also called huROR1-ECD; human ROR1-ECD
T1 sequence (Q01973 30-406 limits assumed): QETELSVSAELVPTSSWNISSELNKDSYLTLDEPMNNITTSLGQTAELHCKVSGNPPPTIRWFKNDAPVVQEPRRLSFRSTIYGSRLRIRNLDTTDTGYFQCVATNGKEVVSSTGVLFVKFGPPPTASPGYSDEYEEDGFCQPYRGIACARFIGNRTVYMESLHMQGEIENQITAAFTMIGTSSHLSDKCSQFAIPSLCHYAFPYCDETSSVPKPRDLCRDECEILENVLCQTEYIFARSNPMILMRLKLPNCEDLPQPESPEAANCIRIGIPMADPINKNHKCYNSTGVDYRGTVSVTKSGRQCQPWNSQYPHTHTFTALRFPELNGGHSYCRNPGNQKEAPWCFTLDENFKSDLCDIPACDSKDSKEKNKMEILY

Binder | Kd
B1 | 3.3 nM

These binders were tested against T1, recombinant human ROR1 extracellular … (assay: ELISA with prolonged wash, soluble Fab on coated huROR1-ECD).
Description: (§1) The previously described filter lift assay provides a visual, qualitative assessment of antigen binding (Example 1). In order to assess the ROR1 binding activity of Ab1 Fab in a more quantitative fashion, an ELISA assay was developed. A 96-well Costar-3366 plate was coated with 50 μL/well of 1 μg/mL human ROR1-ECD (ACROBiosystems, cat. #RO1-H522y) in PBS overnight at 4° C. The plate was rinsed once with PBS-T and blocked with 100 μL/well of 5% M-P for 1 h at 25° C. Fab samples were serially diluted 3-fold using 5% M-P and 50 μL/well was incubated for 1 h at 25° C. The plate was washed three times with PBS-T and 50 μL/well anti-human kappa, and HRP conjugate (Southern Biotech, cat. #2060-05) diluted 10,000-fold in 5% M-P was added for 1 h at 25° C. In certain assays (extended wash format), the plate was placed in large volumes (up to 1 L) of PBS-T and incubated, with mixing, for 2-5 h prior to the addition of anti-human kappa, HRP conjugate. The plate was washed three times with PBS-T, and developed with 50 μL/well 1-Step Ultra TMB-ELISA (Thermo Scientific, cat. #34028). The reaction was terminated by the addition of 2 N H2504 and the A450 was determined using a Spectramax plate reader.
(§2) Subsequently, the libraries were screened by capture lift to identify the strongest binding variants. The identity of the variants was determined by DNA sequencing and the relative affinities were characterized using an ELISA (described in Example 2) modified to enable further discrimination between the highest affinity variants. Specifically, following the initial incubation with soluble Fab, the plates were washed for a prolonged time (>1 h) in large volumes of PBS-T. The plates were then developed as described in Example 2.

Binder | Kd
B2 | 1.8 nM
B3 | 4.8 nM
B4 | 3.3 nM
B5 | 2.1 nM
B6 | 2.1 nM
B7 | 2.1 nM
B8 | 2.3 nM

Biological target: T1, recombinant human ROR1 extracellular …
Assay: ELISA, soluble Fab on coated huROR1-ECD
Remark: another data set of the same source
Description: as §1

Binder | Kd
B9 | 96 nM
B10 | 110 nM
B11 | 68 nM
B12 | 160 nM

Biological target: T1, recombinant human ROR1 extracellular …
Assay: ELISA with prolonged wash, soluble Fab on coated huROR1-ECD
Remark: another data set of the same source
Description: as §1, §2

Binder | Kd
B13 | 1.1 nM
B14 | 2.3 nM
B15 | 1.4 nM
B16 | 1.6 nM
B17 | 1.6 nM
B18 | 1.8 nM
B8 | 1.1 nM

The binders below were run against T2, human ROR1 on live cells (human, UniProt Q01973 30-937) (assay: flow cytometry on live JeKo-1 cells, Fab detected with anti-HA-PE).
T2 construct: ROR1-transfected MEC cells (~56,000 copies/cell) or JeKo-1 cells (~13,000 copies/cell); the cell line is named under assay; also called ROR1-transfected MEC cells; JeKo-1 cells
Description: ROR1 binding was quantitated using flow cytometry and 2.5E5 ROR1-transfected MEC cells or JeKo-1 cells for each concentration of Fab variant. The cells were placed in 50 μL of PBS with 2% FBS. Next, the cells were diluted with an equal volume of 2× stock of the test Fab variant and the cells and antibody were co-incubated on ice for 20 min. The cells were then washed 3 times with 300 μL of FACS buffer and were resuspended in 100 μL of a 70-fold dilution of anti-HA.11-PE conjugate, clone 16B12 (BioLegend, cat. #901517) and incubated on ice with reduced light for 20 min. Subsequently, the cells were washed 3 times with 300 μL of FACS buffer and fixed with 2% paraformaldehyde for 10 min at 25° C. The cells then were washed 2 times with 300 μL of FACS buffer and analyzed on a Miltenyi MACSQuant Analyzer.

T2 sequence (Q01973 30-937 limits assumed): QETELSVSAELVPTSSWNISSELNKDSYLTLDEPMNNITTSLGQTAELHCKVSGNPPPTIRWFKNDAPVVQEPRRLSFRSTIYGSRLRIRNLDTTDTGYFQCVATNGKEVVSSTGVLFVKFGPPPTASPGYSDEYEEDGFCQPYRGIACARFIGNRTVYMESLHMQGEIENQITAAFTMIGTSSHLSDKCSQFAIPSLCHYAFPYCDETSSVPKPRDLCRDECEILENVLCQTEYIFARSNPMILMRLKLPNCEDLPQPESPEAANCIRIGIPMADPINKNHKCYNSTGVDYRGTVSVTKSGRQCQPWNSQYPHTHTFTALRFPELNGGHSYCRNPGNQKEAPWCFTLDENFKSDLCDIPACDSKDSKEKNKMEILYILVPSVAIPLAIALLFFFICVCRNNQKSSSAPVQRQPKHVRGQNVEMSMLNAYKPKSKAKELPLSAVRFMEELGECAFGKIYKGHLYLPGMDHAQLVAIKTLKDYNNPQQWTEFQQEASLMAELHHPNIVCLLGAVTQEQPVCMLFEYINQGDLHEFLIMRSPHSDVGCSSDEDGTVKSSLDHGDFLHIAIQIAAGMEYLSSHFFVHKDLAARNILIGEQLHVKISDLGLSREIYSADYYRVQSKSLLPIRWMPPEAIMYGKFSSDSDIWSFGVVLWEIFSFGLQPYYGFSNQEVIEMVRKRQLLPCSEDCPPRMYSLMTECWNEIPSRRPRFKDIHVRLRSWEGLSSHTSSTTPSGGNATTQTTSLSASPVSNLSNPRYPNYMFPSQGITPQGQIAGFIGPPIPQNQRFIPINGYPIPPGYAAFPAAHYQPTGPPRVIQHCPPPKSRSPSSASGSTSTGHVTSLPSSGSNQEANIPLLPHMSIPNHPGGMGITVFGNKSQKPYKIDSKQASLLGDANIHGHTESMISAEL

Binder | EC50 (read off the curve)
B13 | ~1 nM
B19 | ~1 nM
B5 | ~1 nM
B6 | ~1 nM
B7 | ~2 nM
B8 | ~2 nM

Biological target: T1, recombinant human ROR1 extracellular …
Assay: ELISA with prolonged wash, soluble Fab on coated huROR1-ECD
Remark: another data set of the same source
Description: as §1, §2

Binder | Kd
B2 | 1.8 nM
B19 | 2.1 nM
B20 | 2.3 nM
B6 | 2.4 nM
B21 | 2.9 nM

Biological target: T1, recombinant human ROR1 extracellular …
Assay: ELISA, soluble Fab on coated huROR1-ECD
Remark: another data set of the same source

Binder | fold increase of binding against Ab1 | fold reduction of binding against Ab1
B1 | ~2 fold | 
B11 |  | 10 to 23 fold
B12 |  | 10 to 23 fold
